{"source": "patent US20050181450A1", "about": "“Novel inositol 1,4,5-trisphosphate (IP3) receptor-binding protein and an IP3 indicator” (priority 2002, published 2005)", "format_in_all_cases": "binding", "key": {"[1]": {"test_system": "sodium bicarbonate cotransporter", "experiment": "Immunoprecipitation from mouse cerebellum and mass spectrometry", "conditions": "mouse cerebellar cytosol or microsome detergent extract", "description": "(§1) Mouse cerebellar cytosol fraction or detergent extract of microsome fraction was immunoprecipitated with 50 μg of anti-IRBIT antibody or rabbit IgG. Immunoprecipitates were separated by 10% SDS-PAGE gel, and stained with Coomassie Brilliant Blue. The bands were excised from the gel and digested with lysyl endopeptidase and analyzed with mass spectrometry. Arrows indicate the bands of sodium bicarbonate cotransporter.\nas §1, with “Blue (FIG. 13).” for “Blue.”"}, "IP3R1": {"molecular_target": "T1, IP3R1 (Mus musculus, UniProt P11881, N1264K/P2675L)", "T1 construct": "from tissue; host or cells: mouse cerebellum, detergent extract of crude microsome", "T1 sequence (P11881 whole entry N1264K/P2675L)": "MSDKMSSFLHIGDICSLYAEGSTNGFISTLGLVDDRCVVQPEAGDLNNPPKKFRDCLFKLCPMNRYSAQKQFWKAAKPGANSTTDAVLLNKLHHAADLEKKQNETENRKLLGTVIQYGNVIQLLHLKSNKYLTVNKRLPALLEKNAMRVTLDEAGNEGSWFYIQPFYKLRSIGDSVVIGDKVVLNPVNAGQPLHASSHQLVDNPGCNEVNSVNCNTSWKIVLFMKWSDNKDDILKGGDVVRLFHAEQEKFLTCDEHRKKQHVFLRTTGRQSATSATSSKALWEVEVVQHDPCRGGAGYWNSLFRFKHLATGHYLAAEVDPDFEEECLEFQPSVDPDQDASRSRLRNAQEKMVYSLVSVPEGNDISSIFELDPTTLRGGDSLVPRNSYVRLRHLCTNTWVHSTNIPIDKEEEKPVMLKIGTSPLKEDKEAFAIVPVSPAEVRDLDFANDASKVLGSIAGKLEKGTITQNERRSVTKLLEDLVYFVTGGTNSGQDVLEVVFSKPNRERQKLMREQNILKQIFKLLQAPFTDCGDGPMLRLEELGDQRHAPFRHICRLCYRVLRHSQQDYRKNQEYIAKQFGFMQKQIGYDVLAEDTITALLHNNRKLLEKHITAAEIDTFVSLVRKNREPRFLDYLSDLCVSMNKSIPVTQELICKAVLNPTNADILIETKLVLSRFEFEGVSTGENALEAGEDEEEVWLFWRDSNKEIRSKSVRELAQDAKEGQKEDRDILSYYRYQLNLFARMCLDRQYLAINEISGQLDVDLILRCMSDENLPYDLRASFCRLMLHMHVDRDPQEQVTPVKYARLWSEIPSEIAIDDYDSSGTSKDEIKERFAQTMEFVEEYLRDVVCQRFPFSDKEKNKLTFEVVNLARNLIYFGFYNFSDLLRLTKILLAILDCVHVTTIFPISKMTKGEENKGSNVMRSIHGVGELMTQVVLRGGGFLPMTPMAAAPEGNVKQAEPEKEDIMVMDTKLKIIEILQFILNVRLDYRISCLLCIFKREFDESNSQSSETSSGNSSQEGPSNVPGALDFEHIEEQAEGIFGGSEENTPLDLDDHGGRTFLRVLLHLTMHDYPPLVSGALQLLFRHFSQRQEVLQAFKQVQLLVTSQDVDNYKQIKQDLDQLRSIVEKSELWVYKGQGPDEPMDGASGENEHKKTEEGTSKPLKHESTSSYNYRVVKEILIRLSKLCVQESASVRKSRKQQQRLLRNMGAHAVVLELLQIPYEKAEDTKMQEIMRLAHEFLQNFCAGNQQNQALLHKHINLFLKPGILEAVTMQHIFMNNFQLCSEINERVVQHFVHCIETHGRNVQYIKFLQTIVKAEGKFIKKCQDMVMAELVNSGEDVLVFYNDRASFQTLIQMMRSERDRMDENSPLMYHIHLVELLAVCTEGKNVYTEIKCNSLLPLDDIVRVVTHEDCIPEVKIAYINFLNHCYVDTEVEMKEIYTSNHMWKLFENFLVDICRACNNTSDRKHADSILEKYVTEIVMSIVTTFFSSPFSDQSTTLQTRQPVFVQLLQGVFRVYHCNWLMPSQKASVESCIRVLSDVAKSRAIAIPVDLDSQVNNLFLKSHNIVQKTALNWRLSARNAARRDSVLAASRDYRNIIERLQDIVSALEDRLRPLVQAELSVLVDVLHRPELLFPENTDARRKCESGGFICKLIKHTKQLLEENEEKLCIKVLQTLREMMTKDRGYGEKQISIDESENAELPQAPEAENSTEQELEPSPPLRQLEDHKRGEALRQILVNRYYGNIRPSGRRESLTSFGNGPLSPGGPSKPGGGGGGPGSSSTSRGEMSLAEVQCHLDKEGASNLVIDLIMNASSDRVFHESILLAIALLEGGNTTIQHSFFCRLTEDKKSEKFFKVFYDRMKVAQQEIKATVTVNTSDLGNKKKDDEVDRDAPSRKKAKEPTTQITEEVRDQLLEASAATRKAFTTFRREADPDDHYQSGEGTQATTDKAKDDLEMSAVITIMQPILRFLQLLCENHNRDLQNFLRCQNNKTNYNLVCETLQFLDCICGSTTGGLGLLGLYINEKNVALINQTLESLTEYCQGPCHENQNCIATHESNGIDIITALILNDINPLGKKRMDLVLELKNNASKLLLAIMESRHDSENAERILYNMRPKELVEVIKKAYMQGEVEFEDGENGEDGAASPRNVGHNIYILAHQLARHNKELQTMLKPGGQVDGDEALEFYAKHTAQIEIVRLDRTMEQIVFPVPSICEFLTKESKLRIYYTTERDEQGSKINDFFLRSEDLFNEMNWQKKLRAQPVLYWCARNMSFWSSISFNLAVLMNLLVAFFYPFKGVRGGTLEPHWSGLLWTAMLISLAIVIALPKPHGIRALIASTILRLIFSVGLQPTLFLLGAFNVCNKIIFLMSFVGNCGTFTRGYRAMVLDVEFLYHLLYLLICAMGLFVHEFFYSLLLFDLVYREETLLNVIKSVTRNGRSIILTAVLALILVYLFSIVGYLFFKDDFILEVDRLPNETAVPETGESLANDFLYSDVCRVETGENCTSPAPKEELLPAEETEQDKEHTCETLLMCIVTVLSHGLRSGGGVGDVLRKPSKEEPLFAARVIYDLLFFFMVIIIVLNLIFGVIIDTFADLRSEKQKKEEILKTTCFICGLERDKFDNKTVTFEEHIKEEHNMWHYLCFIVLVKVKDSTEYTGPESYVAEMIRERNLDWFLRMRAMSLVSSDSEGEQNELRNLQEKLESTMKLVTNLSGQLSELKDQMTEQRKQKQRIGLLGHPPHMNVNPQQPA", "experiment": "Co-immunoprecipitation from mouse cerebellar crude microsome", "conditions": "detergent extract of mouse cerebellar crude microsome", "description": "The detergent extract of mouse cerebellar crude microsome was immunoprecipitated with anti-IRBIT antibody or control antibody. The immunoprecipitates were subjected to SDS-PAGE followed by Western blotting with anti-IP3R1 antibody (upper panel) or anti-IRBIT (lower panel) antibody.\nDetergent-solubilized extract from the crude microsome was prepared with 1% Nonidet P-40-containing 50 mM Hepes (pH 7.4), 1 mM MgCl2, and protease inhibitors for 30 minutes at 4° C., and centrifuged at 20,000×g for 30 minutes. The supernatant was diluted 10-fold in an immunoprecipitation buffer (10 mM Hepes (pH 7.4), 150 mM NaCl, 1 mM MgCl2, and 1% Nonidet P-40) and incubated with rabbit anti-IRBIT antibody (3 μg) or control rabbit IgG (3 μg) for 2 hours at 4° C. Protein G Sepharose 4 fast flow (Amersham Pharmacia Biotech) was added for reaction with immune complexes for 2 hours at 4° C. Resins were washed three times with an immunoprecipitation buffer and subjected to Western blotting with anti-IRBIT antibody or mouse anti-IP3R1 antibody KM1112 (47)."}, "[2]": {"molecular_target": "T2, GST-EL (mouse IP3R1 amino acids 1-2217) (Mus musculus, UniProt P11881, N1264K)", "T2 construct": "construct a GST-IP3R1 (1-2217) vector (termed GST-EL); made in house; host or cells: Sf9 cells (baculovirus)", "T2 sequence (P11881 1-2217 N1264K)": "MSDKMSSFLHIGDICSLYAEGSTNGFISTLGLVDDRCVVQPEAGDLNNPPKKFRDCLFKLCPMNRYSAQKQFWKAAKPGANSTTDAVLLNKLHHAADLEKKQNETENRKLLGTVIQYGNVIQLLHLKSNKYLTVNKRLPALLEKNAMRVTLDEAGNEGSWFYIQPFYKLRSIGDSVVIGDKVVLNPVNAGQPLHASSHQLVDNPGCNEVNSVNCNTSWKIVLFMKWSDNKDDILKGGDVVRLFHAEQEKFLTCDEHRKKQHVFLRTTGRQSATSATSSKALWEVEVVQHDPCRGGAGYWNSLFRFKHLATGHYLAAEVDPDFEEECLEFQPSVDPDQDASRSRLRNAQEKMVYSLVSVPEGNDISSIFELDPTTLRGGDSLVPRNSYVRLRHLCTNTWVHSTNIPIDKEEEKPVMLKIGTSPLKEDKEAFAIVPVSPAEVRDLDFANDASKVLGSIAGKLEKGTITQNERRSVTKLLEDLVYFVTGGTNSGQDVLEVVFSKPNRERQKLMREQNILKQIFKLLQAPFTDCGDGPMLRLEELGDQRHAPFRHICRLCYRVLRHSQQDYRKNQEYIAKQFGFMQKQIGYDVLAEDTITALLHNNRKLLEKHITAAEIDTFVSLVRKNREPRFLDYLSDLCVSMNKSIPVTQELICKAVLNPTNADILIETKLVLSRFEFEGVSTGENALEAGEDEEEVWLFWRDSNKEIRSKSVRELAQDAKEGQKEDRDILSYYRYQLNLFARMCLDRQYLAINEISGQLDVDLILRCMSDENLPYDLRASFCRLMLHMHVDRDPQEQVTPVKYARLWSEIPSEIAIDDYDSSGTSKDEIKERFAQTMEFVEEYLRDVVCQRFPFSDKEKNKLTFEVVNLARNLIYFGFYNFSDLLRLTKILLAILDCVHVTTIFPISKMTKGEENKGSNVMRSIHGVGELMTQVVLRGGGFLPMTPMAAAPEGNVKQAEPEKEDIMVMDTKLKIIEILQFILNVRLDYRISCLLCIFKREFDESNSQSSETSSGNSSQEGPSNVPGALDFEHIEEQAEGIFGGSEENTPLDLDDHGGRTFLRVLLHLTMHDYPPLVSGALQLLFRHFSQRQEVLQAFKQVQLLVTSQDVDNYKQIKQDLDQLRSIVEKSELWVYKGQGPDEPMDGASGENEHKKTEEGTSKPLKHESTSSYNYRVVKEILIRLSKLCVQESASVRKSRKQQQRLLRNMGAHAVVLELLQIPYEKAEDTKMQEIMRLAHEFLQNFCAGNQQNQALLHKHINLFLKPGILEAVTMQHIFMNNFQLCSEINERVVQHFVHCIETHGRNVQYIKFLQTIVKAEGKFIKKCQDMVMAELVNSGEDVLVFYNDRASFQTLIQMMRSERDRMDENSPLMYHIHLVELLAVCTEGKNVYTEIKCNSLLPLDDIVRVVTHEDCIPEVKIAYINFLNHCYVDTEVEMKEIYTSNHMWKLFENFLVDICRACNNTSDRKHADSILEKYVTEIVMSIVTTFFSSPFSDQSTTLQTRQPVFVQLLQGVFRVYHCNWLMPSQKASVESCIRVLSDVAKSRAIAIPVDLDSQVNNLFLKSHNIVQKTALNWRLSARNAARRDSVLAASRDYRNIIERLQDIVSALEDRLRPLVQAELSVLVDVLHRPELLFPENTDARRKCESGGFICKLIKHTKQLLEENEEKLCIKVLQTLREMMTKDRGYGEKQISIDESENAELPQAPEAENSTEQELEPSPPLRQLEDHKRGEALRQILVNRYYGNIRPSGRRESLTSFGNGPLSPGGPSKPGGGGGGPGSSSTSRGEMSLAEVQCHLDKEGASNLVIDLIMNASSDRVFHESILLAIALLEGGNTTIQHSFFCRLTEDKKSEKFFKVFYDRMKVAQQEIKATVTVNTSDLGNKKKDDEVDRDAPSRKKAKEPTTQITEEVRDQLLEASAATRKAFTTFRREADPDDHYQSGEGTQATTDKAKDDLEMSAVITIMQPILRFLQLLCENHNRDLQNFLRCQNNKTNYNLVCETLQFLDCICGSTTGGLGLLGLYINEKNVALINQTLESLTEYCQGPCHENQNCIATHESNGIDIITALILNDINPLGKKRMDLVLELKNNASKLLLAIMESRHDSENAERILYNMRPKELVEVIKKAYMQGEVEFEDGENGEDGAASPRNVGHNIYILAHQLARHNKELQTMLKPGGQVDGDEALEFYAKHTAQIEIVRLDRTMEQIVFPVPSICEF", "experiment": "GST pulldown with GST-EL", "description": "Mouse cerebellar cytosolic fraction was diluted 2-fold with 10 mM Hepes (pH 7.4), 200 mM NaCl, 2 mM EDTA, 1 mM 2-ME and 0.02% Triton X-100. The high salt extract was diluted 5-fold with 10 mM Hepes (pH 7.4), 2 mM EDTA, 1 mM 2-ME and 0.01% Triton X-100. The diluted fractions (the final NaCl concentration of both fractions was 100 mM) were incubated with 20 μg of GST-EL or GST for 2 hours at 4° C. After adding 10 μl of glutathione-Sepharose and another 2 hours of incubation, the resins were washed 5 times with a wash buffer (10 mM Hepes (pH 7.4), 100 mM NaCl, 2 mM EDTA, 1 mM 2-ME, and 0.01% Triton X-100), and bound proteins were eluted with 20 mM glutathione.\nThe eluted proteins were analyzed by Western blotting with anti-IRBIT antibody. For dephosphorylation, the diluted high salt extract was incubated in the presence of or the absence of Escherichia coli alkaline phosphatase (Toyobo) with 2 mM MgCl2 for 30 minutes at 37° C. 5 mM EDTA was added, and then the resultant was subjected to pulldown assay as described above.\nFor the determination of the IP3R1-interacting region of IRBIT, Cos-7 cells expressing GFP-tagged full-length IRBIT or its truncated mutants were lysed in a lysis buffer (10 mM Hepes (pH7.4), 100 mM NaCl, 2 mM EDTA, 1 mM 2-ME, 0.5% Nonidet P-40, and protease inhibitor) for 30 minutes at 4° C., followed by centrifugation (100,000×g, 30 minutes). The supernatants were subjected to pulldown assay with GST-EL or GST as described above, and bound proteins were subjected to immunoblot analysis with anti-GFP antibody (Medical & Biological Laboratories)."}}}
{"molecule": "IRBIT: novel IP3 receptor-binding protein of 530 amino acids, SEQ ID NO: 1 (protein, listed as Mus musculus) MSMPDAMPLPGVGEELKQAKEIEDAEKYSFMATVTKAPKKQIQFADDMQEFTKFPTKTGRRSLSRSISQSSTDSYSSAASYTDSSDDEVSPREKQQTNSKGSSNFCVKNIKQAEFGRREIEIAEQDMSALISLRKRAQGEKPLAGAKIVGCTHITAQTAVLIETLCALGAQCRWSACNIYSTQNEVAAALAEAGVAVFAWKGESEDDFWWCIDRCVNMDGWQANMILDDGGDLTHWVYKKYPNVFKKIRGIVEESVTGVHRLYQLSKAGKLCVPAMNVNDSVTKQKFDNLYCCRESILDGLKRTTDVMFGGKQVVVCGYGEVGKGCCAALKALGAIVYITEIDPICALQACMDGFRVVKLNEVIRQVDVVITCTGNKNVVTREHLDRMKNSCIVCNMGHSNTEIDVTSLRTPELTWERVRSQVDHVIWPDGKRVVLLAEGRLLNLSCSTVPTFVLSITATTQALALIELYNAPEGRYKQDVYLLPKKMDEYVASLHLPSFDAHLTELTDDQAKYLGLNKNGPFKPNYYRY", "values": [{"measurement": "interaction with sodium bicarbonate cotransporter", "setting": "[1]", "value": "interacted"}, {"measurement": "co-immunoprecipitation of IP3R1 with anti-IRBIT antibody", "setting": "IP3R1", "value": "co-immunoprecipitated"}, {"measurement": "interaction with GST-EL", "setting": "[2]; IRBIT in high salt extract of mouse cerebellar crude microsome", "value": "interacted with GST-EL"}, {"measurement": "interaction with GST-EL", "setting": "[2]; IRBIT in mouse cerebellar cytosolic fraction", "value": "did not interact with GST-EL"}, {"measurement": "interaction with GST-EL", "setting": "[2]; high salt extract treated with alkaline phosphatase", "value": "did not interact with GST-EL"}]}
